The source of these data is paper PMC4096160 (Nature structural & molecular biology, 2013).

One data set addresses hSTAU1^55-HA3 (human) (UniProt O95793). Nature of the data set: co-IP.
Data set [1] has as its target hSTAU1^55(R)Δ(SSM-‘RBD’5)-FLAG (human). The data set can be described thus: co-IP.
The data set “SEC” concerns the molecule itself. The data set can be described thus: SEC. For orientation: SEC sorts molecules by how far they enter the pores of the column.
The data set “AUC” deals with the molecule itself. Nature of the data set: AUC.

Sequence of hSTAU1^55-HA3 (human) (O95793 82-577): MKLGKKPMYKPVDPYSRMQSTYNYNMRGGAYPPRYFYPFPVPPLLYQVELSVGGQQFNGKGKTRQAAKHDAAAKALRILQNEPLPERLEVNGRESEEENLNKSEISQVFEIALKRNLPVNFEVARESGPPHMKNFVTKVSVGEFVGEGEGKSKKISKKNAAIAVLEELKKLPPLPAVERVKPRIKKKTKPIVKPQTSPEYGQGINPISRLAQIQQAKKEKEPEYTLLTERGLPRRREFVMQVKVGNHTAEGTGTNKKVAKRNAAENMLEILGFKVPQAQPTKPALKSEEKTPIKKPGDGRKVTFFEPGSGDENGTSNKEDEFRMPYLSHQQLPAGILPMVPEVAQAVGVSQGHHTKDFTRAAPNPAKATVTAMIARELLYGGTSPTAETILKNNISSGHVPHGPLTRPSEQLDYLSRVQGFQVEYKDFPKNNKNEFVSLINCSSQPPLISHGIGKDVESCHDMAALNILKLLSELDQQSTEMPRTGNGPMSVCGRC

Molecule “hSTAU1^55(R)Δ(SSM-‘RBD’5)-FLAG (domain or fragment)” displayed a level of co-immunoprecipitation as percent of that of WT or Δ(C-Term) in the data set with hSTAU1^55-HA3 (human) of 10%.
Take “hSTAU1^55-HA3 (from UniProt O95793-2 1-496) (natural protein)”: the level of co-immunoprecipitation as percent of that with WT or Δ(C-Term) in data set [1] turned out to be 10%.

B1: hSTAU1-‘RBD’2-RBD3 (amino acids 43–173) (domain or fragment)
chain: PLLYQVELSVGGQQFNGKGKTRQAAKHDAAAKALRILQNEPLPERLEVNGRESEEENLNKSEISQVFEIALKRNLPVNFEVARESGPPHMKNFVTKVSVGEFVGEGEGKSKKISKKNAAIAVLEELKKLPP
Turning to B1, the “stoichiometry N” value in “SEC” stood at 2.

B2: cellular hUPF1 (natural protein)
chain: MSVEAYGPSSQTLTFLDTEEAELLGADTQGSEFEFTDFTLPSQTQTPPGGPGGPGGGGAGGPGGAGAGAAAGQLDAQVGPEGILQNGAVDDSVAKTSQLLAELNFEEDEEDTYYTKDLPIHACSYCGIHDPACVVYCNTSKKWFCNGRGNTSGSHIVNHLVRAKCKEVTLHKDGPLGETVLECYNCGCRNVFLLGFIPAKADSVVVLLCRQPCASQSSLKDINWDSSQWQPLIQDRCFLSWLVKIPSEQEQLRARQITAQQINKLEELWKENPSATLEDLEKPGVDEEPQHVLLRYEDAYQYQNIFGPLVKLEADYDKKLKESQTQDNITVRWDLGLNKKRIAYFTLPKTDSGNEDLVIIWLRDMRLMQGDEICLRYKGDLAPLWKGIGHVIKVPDNYGDEIAIELRSSVGAPVEVTHNFQVDFVWKSTSFDRMQSALKTFAVDETSVSGYIYHKLLGHEVEDVIIKCQLPKRFTAQGLPDLNHSQVYAVKTVLQRPLSLIQGPPGTGKTVTSATIVYHLARQGNGPVLVCAPSNIAVDQLTEKIHQTGLKVVRLCAKSREAIDSPVSFLALHNQIRNMDSMPELQKLQQLKDETGELSSADEKRYRALKRTAERELLMNADVICCTCVGAGDPRLAKMQFRSILIDESTQATEPECMVPVVLGAKQLILVGDHCQLGPVVMCKKAAKAGLSQSLFERLVVLGIRPIRLQVQYRMHPALSAFPSNIFYEGSLQNGVTAADRVKKGFDFQWPQPDKPMFFYVTQGQEEIASSGTSYLNRTEAANVEKITTKLLKAGAKPDQIGIITPYEGQRSYLVQYMQFSGSLHTKLYQEVEIASVDAFQGREKDFIILSCVRANEHQGIGFLNDPRRLNVALTRARYGVIIVGNPKALSKQPLWNHLLNYYKEQKVLVEGPLNNLRESLMQFSKPRKLVNTINPGARFMTTAMYDAREAIIPGSVYDRSSQGRPSSMYFQTHDQIGMISAGPSHVAAMNIPIPFNLVMPPMPPPGYFGQANGPAAGRGTPKGKTGRGGRQKNRFGLPGPSQTNLPNSQASQDVASQPFSQGALTQGYISMSQPSQMSQPGLSQPELSQDSYLGDEFKSQIDVALSQDSTYQGERAYQHGGVTGLSQY
In turn, B2 showed a level of co-immunoprecipitation as percent of that with WT or Δ(C-Term) in data set [1] of 10%.

B3: hSTAU1 SSM-‘RBD’5 (hSTAU1 amino acids 367–476) (domain or fragment)
chain: KATVTAMIARELLYGGTSPTAETILKNNISSGHVPHGPLTRPSEQLDYLSRVQGFQVEYKDFPKNNKNEFVSLINCSSQPPLISHGIGKDVESCHDMAALNILKLLSELD
Regarding B3, binding in “AUC” was characterised by a dissociation constant (Kd) of 79 ± 9 µM. Moreover, the “stoichiometry N” value in “SEC” is 2.

As usually defined, the stoichiometry N is a count of units in the complex or per binding partner. The Kd is the constant that tells how readily two partners part at equilibrium.
